Laboratory results: US20260184777A1 (BEIJING SUNGEN BIOMEDICAL TECHNOLOGY, published 2026)

T1: human S100A8/A9 heterodimeric antigen, His-tagged (hS100A8/A9-His) (human, UniProt P05109 1-93; P06702 1-114)
T1 sequence 1: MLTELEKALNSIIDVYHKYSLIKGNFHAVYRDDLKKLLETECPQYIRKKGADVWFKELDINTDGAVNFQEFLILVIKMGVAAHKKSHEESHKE
T1 sequence 2: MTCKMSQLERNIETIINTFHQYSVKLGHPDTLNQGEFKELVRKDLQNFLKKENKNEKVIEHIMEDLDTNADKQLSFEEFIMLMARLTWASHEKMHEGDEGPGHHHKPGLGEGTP


Target: T1, human S100A8/A9 heterodimeric antigen, …
Assay: cell-based or functional assay

Binder	Relative IC50 (IC50 relative to CM-1), IL-6 release from hS100A8/A9-activated human PBMCs
CM-98 (antibody, human IgG4 S228P, lambda, V domains shown) VH: EVQLVESGGGLVQPGGSLRLSCAASGFTFSDYAMSWVRQAPGKGLEWVSAISGSGGSTYYAASVKGRFTISRDNSKNTLYLQMNSLRAEDTAVYYCARKYRPSRVFDAWGQGTLVTVSS VL: SYELTQPPSVSVAPGQTARITCSGDALGDKYASWYQQKPGQAPVLVIYEDAKRPWGIPERFSGSNSGNTATLTISGTQAEDEADYYCQSNDADAWWVFGGGTKLTVLG	0.703 relative to CM-1
CM-99 (antibody, human IgG4 S228P, lambda, V domains shown) VH: EVQLVESGGGLVQPGGSLRLSCAASGFTFSDYAMSWVRQAPGKGLEWVSAISGSGGSHYYAASVKGRFTISRDNSKNTLYLQMNSLRAEDTAVYYCARKYRPSRVFDAWGQGTLVTVSS VL: SYELTQPPSVSVAPGQTARITCSGDALGDKYASWYQQKPGQAPVLVIYEDAKRPSGIPERFSGSNSGNTATLTISGTQAEDEADYYCQSNDADAVWVFGGGTKLTVLG	1.3 relative to CM-1
CM-100 (antibody, human IgG4 S228P, lambda, V domains shown) VH: EVQLVESGGGLVQPGGSLRLSCAASGFTFSDYAMSWVRQAPGKGLEWVSAISGSGGSHYYAASVKGRFTISRDNSKNTLYLQMNSLRAEDTAVYYCARKYRPSRVFDAWGQGTLVTVSS VL: SYELTQPPSVSVAPGQTARITCSGDALHDKYASWYQQKPGQAPVLVIYEDAKRPSGIPERFSGSNSGNTATLTISGTQAEDEADYYCQSNDADAVWVFGGGTKLTVLG	1.12 relative to CM-1
CM-101 (antibody, human IgG4 S228P, lambda, V domains shown) VH: EVQLVESGGGLVQPGGSLRLSCAASGFTFSDYAMSWVRQAPGKGLEWVSAISGSGGSHYYAASVKGRFTISRDNSKNTLYLQMNSLRAEDTAVYYCARKYRPSRVFDAWGQGTLVTVSS VL: SYELTQPPSVSVAPGQTARITCSGDALGDKYAAWYQQKPGQAPVLVIYEDAKRPSGIPERFSGSNSGNTATLTISGTQAEDEADYYCQSNDADAVWVFGGGTKLTVLG	0.683 relative to CM-1
CM-102 (antibody, human IgG4 S228P, lambda, V domains shown) VH: EVQLVESGGGLVQPGGSLRLSCAASGFTFSDYAMSWVRQAPGKGLEWVSAISGSGGSHYYAASVKGRFTISRDNSKNTLYLQMNSLRAEDTAVYYCARKYRPSRVFDAWGQGTLVTVSS VL: SYELTQPPSVSVAPGQTARITCSGDALGDKYASWYQQKPGQAPVLVIYEDAKRPSGIPERFSGSNSGNTATLTISGTQAEDEADYYCQSNDADAWWVFGGGTKLTVLG	0.464 relative to CM-1
CM-103 (antibody, human IgG4 S228P, lambda, V domains shown) VH: EVQLVESGGGLVQPGGSLRLSCAASGFTFSDYAMSWVRQAPGKGLEWVSAISGSGGSHYYAASVKGRFTISRDNSKNTLYLQMNSLRAEDTAVYYCARKYRPSRVFDAWGQGTLVTVSS VL: SYELTQPPSVSVAPGQTARITCSGDALGDKYASWYQQKPGQAPVLVIYEDAKRPSGIPERFSGSNSGNTATLTISGTQAEDEADYYCQSNDADARWVFGGGTKLTVLG	0.687 relative to CM-1
CM-104 (antibody, human IgG4 S228P, lambda, V domains shown) VH: EVQLVESGGGLVQPGGSLRLSCAASGFTFSDYAMSWVRQAPGKGLEWVSAISGSGGSHYYAASVKGRFTISRDNSKNTLYLQMNSLRAEDTAVYYCARKYRPSRVFDAWGQGTLVTVSS VL: SYELTQPPSVSVAPGQTARITCSGDALGDKYASWYQQKPGQAPVLVIYEDAKRPSGIPERFSGSNSGNTATLTISGTQAEDEADYYCQSNDADAYWVFGGGTKLTVLG	1.76 relative to CM-1
CM-105 (antibody, human IgG4 S228P, lambda, V domains shown) VH: EVQLVESGGGLVQPGGSLRLSCAASGFTFSDYAMSWVRQAPGKGLEWVSAISGSGGSHYYAASVKGRFTISRDNSKNTLYLQMNSLRAEDTAVYYCARKYRPSRVFDAWGQGTLVTVSS VL: SYELTQPPSVSVAPGQTARITCSGDALHDKYAAWYQQKPGQAPVLVIYEDAKRPSGIPERFSGSNSGNTATLTISGTQAEDEADYYCQSNDADAVWVFGGGTKLTVLG	1.5 relative to CM-1
CM-106 (antibody, human IgG4 S228P, lambda, V domains shown) VH: EVQLVESGGGLVQPGGSLRLSCAASGFTFSDYAMSWVRQAPGKGLEWVSAISGSGGSHYYAASVKGRFTISRDNSKNTLYLQMNSLRAEDTAVYYCARKYRPSRVFDAWGQGTLVTVSS VL: SYELTQPPSVSVAPGQTARITCSGDALHDKYASWYQQKPGQAPVLVIYEDAKRPSGIPERFSGSNSGNTATLTISGTQAEDEADYYCQSNDADAYWVFGGGTKLTVLG	0.352 relative to CM-1
CM-107 (antibody, human IgG4 S228P, lambda, V domains shown) VH: EVQLVESGGGLVQPGGSLRLSCAASGFTFSDYAMSWVRQAPGKGLEWVSAISGSGGSHYYAASVKGRFTISRDNSKNTLYLQMNSLRAEDTAVYYCARKYRPSRVFDAWGQGTLVTVSS VL: SYELTQPPSVSVAPGQTARITCSGDALGDKYASWYQQKPGQAPVLVIYEHHKRPSGIPERFSGSNSGNTATLTISGTQAEDEADYYCQSNDADAVWVFGGGTKLTVLG	0.386 relative to CM-1
CM-108 (antibody, human IgG4 S228P, lambda, V domains shown) VH: EVQLVESGGGLVQPGGSLRLSCAASGFTFSDYAMSWVRQAPGKGLEWVSAISGSGGSHYYAASVKGRFTISRDNSKNTLYLQMNSLRAEDTAVYYCARKYRPSRVFDAWGQGTLVTVSS VL: SYELTQPPSVSVAPGQTARITCSGDALGDKYASWYQQKPGQAPVLVIYEDAKRPDGIPERFSGSNSGNTATLTISGTQAEDEADYYCQSNDADAYWVFGGGTKLTVLG	1.5 relative to CM-1
CM-109 (antibody, human IgG4 S228P, lambda, V domains shown) VH: EVQLVESGGGLVQPGGSLRLSCAASGFTFSDYAMSWVRQAPGKGLEWVSAISGSGGSHYYAASVKGRFTISRDNSKNTLYLQMNSLRAEDTAVYYCARKYRPSRVFDAWGQGTLVTVSS VL: SYELTQPPSVSVAPGQTARITCSGDALHDKYASWYQQKPGQAPVLVIYEHHKRPSGIPERFSGSNSGNTATLTISGTQAEDEADYYCQSNDADAVWVFGGGTKLTVLG	0.475 relative to CM-1
CM-110 (antibody, human IgG4 S228P, lambda, V domains shown) VH: EVQLVESGGGLVQPGGSLRLSCAASGFTFSSYAMAWVRQAPGKGLEWVSAISGSGGSTYYAASVKGRFTISRDNSKNTLYLQMNSLRAEDTAVYYCARKYRPSRVFDAWGQGTLVTVSS VL: SYELTQPPSVSVAPGQTARITCSGDALHDKYASWYQQKPGQAPVLVIYEDAKRPSGIPERFSGSNSGNTATLTISGTQAEDEADYYCQSNDADAVWVFGGGTKLTVLG	0.878 relative to CM-1
CM-111 (antibody, human IgG4 S228P, lambda, V domains shown) VH: EVQLVESGGGLVQPGGSLRLSCAASGFTFSSYAMSWVRQAPGKGLEWVSAISGHGGSTYYAASVKGRFTISRDNSKNTLYLQMNSLRAEDTAVYYCARKYRPSRVFDAWGQGTLVTVSS VL: SYELTQPPSVSVAPGQTARITCSGDALGDKYAAWYQQKPGQAPVLVIYEDAKRPSGIPERFSGSNSGNTATLTISGTQAEDEADYYCQSNDADAVWVFGGGTKLTVLG	1.08 relative to CM-1
CM-112 (antibody, human IgG4 S228P, lambda, V domains shown) VH: EVQLVESGGGLVQPGGSLRLSCAASGFTFSSYAMSWVRQAPGKGLEWVSAISGSGGSHYYAASVKGRFTISRDNSKNTLYLQMNSLRAEDTAVYYCARKYRPSRVFDAWGQGTLVTVSS VL: SYELTQPPSVSVAPGQTARITCSGDALHDKYASWYQQKPGQAPVLVIYEDAKRPSGIPERFSGSNSGNTATLTISGTQAEDEADYYCQSNDADAVWVFGGGTKLTVLG	0.738 relative to CM-1
